Test results published in US20230049152A1 (Genentech, published 2023).

T1: human CCR3 (human, UniProt P51677 1-355)
T1 construct: whole, on cells; transiently expressed on HEK293 cells
T1 sequence (looked up): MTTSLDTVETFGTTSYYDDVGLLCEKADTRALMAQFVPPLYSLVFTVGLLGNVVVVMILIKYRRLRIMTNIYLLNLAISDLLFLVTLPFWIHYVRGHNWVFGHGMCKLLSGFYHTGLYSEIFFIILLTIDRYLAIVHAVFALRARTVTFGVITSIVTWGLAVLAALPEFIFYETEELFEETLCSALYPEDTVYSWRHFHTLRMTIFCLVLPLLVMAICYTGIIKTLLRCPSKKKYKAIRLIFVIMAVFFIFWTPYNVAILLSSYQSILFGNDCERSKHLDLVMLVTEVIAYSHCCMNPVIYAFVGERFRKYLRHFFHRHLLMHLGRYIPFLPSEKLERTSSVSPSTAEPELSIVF

T2: human ACKR4 (human, UniProt Q9NPB9 1-350)
T2 construct: whole, on cells; transiently expressed on HEK293 cells
T2 sequence (looked up): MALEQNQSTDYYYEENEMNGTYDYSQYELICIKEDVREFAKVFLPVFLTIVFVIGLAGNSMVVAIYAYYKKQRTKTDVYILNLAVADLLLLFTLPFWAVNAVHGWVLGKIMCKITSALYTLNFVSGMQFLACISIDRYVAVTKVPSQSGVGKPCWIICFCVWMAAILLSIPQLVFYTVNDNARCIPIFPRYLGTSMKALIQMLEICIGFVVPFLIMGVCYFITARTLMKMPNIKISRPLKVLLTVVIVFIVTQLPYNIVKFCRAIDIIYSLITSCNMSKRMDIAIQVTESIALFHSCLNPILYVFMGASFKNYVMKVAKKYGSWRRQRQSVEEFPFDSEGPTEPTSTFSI


Columns and labels:
[1] = target: T1, human CCR3; test: flow cytometry, HEK293 with N-term FLAG-tagged human CCR3
Text: FIGS. 4A-4F depicts the binding data of hu.Ab3.H1L1 (FIG. 4A), hu.Ab4.H1L1 (FIG. 4B), and hu.Ab5.H1L1 (FIG. 4C), as well as the commercial anti-CCR8 mAbs murine anti-human CCR8 mAb 433H (BD Biosciences) (FIG. 4D), and murine anti-human CCR8 mAb L263G8 (Biolegend) (FIG. 4E), and the humanized anti-human Yoshida anti-CCR8 mAb (FIG. 4F), to HEK293 cells that were transiently transfected with N-term FLAG-tagged plasmids encoding for human GPCRs (CCR2, CCR3, CCR4, CCR5, CCR8, CXCR4, ACKR2, and ACKR4), hCCR8 constructs, or with a mock construct using transIT X2 (reagent:DNA=3:1).
To confirm the selectivity to CCR8, the binding of hu.Ab3.H1L1, hu.Ab4.H1L1, and hu.Ab5.H1L1, as well as the Yoshida humanized anti-human CCR8, murine anti-human CCR8 mAb L263G8 (Biolegend, Commercial Ab) and murine anti-human CCR8 mAb 433H (BD Biosciences, Commercial Ab), were characterized by flow cytometry on HEK293 cells that were transiently transfected with plasmids encoding for FLAG-tagged other related human GPCRs (CCR2-5, CXCR4, ACKR2, and ACKR4). Cell surface expression of each GPCR was confirmed by staining with an anti-FLAG antibody control. […]

[2] = target: T3, human CCR8 (human, UniProt P51685 1-355); test: cell-based or functional assay
[3] = target: T4, GST-FcgR3a.F158 (UniProt P08637 17-208, limits assumed); test: ELISA, GST-FcgR3a.F158 captured by anti-GST antibody
T4 construct: Captured by anti-GST antibody on ELISA plate; also called FcgR3a.F158 protein; Fcgamma RIIIa F158; not shown: GST tag
T4 sequence (P08637 17-208 limits assumed): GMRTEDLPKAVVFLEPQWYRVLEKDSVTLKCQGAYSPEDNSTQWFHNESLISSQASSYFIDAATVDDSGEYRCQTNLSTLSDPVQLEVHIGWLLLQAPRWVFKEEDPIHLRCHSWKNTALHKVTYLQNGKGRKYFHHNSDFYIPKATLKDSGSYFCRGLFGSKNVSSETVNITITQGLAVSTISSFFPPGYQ
Experimental: The binding of fucosylated and afucosylated variants of hu.Ab5.H13L1 and hu.Ab4.H12L3 to both FcgR3a proteins by ELISA was studied. Briefly, an anti-GST antibody was coated on Nunc Maxisorp plates. GST-FcgR3a.V158 and GST-FcgR3a.F158 were captured at 500 ng/mL. Plates were then washed and then serially diluted anti-CCR8 antibodies starting at 100 ug/mL were incubated on the plate for 1 hour at room temperature. Plates were washed and bound antibody was detected by a HRP-conjugated anti-human IgG secondary antibody. Absorbance at 450 nm was measured by a plate reader. The data were fitted using a 4-parameter logistic curve in Softmax Pro.

[4] = target: T2, human ACKR4; test: flow cytometry, HEK293 with N-term FLAG-tagged human ACKR4, procedure of FIG. 4
Text: To confirm the selectivity to CCR8, the binding of hu.Ab3.H1L1, hu.Ab4.H1L1, and hu.Ab5.H1L1, as well as the Yoshida humanized anti-human CCR8, murine anti-human CCR8 mAb L263G8 (Biolegend, Commercial Ab) and murine anti-human CCR8 mAb 433H (BD Biosciences, Commercial Ab), were characterized by flow cytometry on HEK293 cells that were transiently transfected with plasmids encoding for FLAG-tagged other related human GPCRs (CCR2-5, CXCR4, ACKR2, and ACKR4). Cell surface expression of each GPCR was confirmed by staining with an anti-FLAG antibody control. In particular, HEK293 cells were transfected with N-term FLAG-tagged human CCR2, CCR3, CCR4, CCR5, CXCR4, ACKR2, ACKR4, hCCR8 constructs, or with a Mock construct using transIT X2 (reagent:DNA=3:1) for 24 hours, and surface stained with various anti-hCCR8 monoclonal antibodies at 5 ug/ml, or rabbit anti-Flag pAb (Sigma) followed by AF647-anti-hIgG or AF647-anti-RbIgG respectively. Antibodies hu.Ab4.H1L1, and hu.Ab5.H1L1, only stained the hCCR8-containing cells, confirming their specificity to hCCR8. […] Thus, the CCR8 selective hu.Ab4.H1L1 and hu.Ab5.H1L1 antibodies with the best ADCC activities were carried forward.
To reconfirm that the Ab4 and Ab5 variants remained selective to CCR8 compared to the corresponding HIL1 variants, binding was analyzed by flow cytometry following the procedure as described for FIG. 4A and FIG. 4B. […]

[5] = target: T3, human CCR8; test: radioligand competition, 125I-labelled IgG versus unlabelled IgG on CHO cells stably expressing human CCR8
Experimental: Cell-based affinity measurements were performed using radiolabeled IgGs and CHO cell lines stably expressing human or cyno CCR8 for hu.Ab5.H13L1 and hu.Ab4.H12L3.
Briefly, stable CHO cells expressing human or cyno CCR8 were seeded in cold binding buffer (Opti-MEM+2% FBS+50 mM HEPES, pH 7.2+0.1% Sodium Azide) at 50,000 cells per well. A fixed concentration of ¹²⁵I-anti-CCR8 radiolabeled using the NEX244 Iodogen method (Perkin Elmer) was mixed with serially diluted anti-CCR8 antibodies starting at 20 nM or 50 nM. The antibody mixture was added to the cells and incubated at room temperature for 12 hours under gentle agitation. The cells and antibodies were then transferred to Millipore multiscreen filter plates. The filter plates were washed 4 times with 250 μL of cold binding buffer and dried for at least 30 minutes and the filters were punched into 5 mL polystyrene tubes. The radioactivity was measured using a Perkin Elmer Wallac Wizard 2470 Gamma Counter set at 1 count per minute with 0.8 counting efficiency. The data were fitted using the heterologous one site-fit Ki competitive binding model in GraphPad Prism.

Row | Binder | binding result [1] | ADCC EC50, NK-92 F158 cells (FIG. 11A) [2] | ADCC EC50, NK-92 V158 cells (FIG. 11B) [2] | EC50 [3] | binding result [4] | Kd [5]
1 | hu.Ab5.H1L1 (antibody, human IgG1, kappa) heavy: not shown light: DIQVTQSPSSLSASVGDRVTITCQASENIANALAWYQQKPGKPPKFLIYGASNLASGVPSRFSGSGSGTDFTFTISSLQPEDIATYYCQQAYYGNSFVEGTFGGGTKVEIKRTVAAPSVFIFPPSDEQLKSGTASVVCLLNNFYPREAKVQWKVDNALQSGNSQESVTEQDSKDSTYSLSSTLTLSKADYEKHKVYACEVTHQGLSSPVTKSFNRGEC | no binding (tested: 5 ug/ml) | – | – | – | – | –
2 | hu.Ab4.H1L1 (antibody, human IgG1, kappa, also called hu.Ab4.H1Ll) heavy: not shown light: DYQMTQSPSSLSASVGDRVTITCQASQSISSYLSWYQQKPGKRPKLLIYKASTLASGVPSRFSGSGSGTDFTLTISSLQPEDFATYYCQQGYTSSNIDNIFGGGTKVEIKRTVAAPSVFIFPPSDEQLKSGTASVVCLLNNFYPREAKVQWKVDNALQSGNSQESVTEQDSKDSTYSLSSTLTLSKADYEKHKVYACEVTHQGLSSPVTKSFNRGEC | no binding (tested: 5 ug/ml) | – | – | – | – | –

More lines, now with the values ahead:

Row | binding result [1] | ADCC EC50, NK-92 F158 cells (FIG. 11A) [2] | ADCC EC50, NK-92 V158 cells (FIG. 11B) [2] | EC50 [3] | binding result [4] | Kd [5] | Binder
3 | – | 0.14 nM | 0.094 nM | 4.11 µg/mL | no binding (tested: 5 ug/ml) | 0.004 nM | hu.Ab5.H13L1 (antibody, human IgG1, kappa, fucosylated human IgG1; also called Ab5 variant) heavy: not shown light: DIQVTQSPSSLSASVGDRVTITCQASENIANALAWYQQKPGKPPKFLIYGASNLASGVPSRFSGSGSGTDFTFTISSLQPEDIATYYCQQAYYGNSFVEGTFGGGTKVEIKRTVAAPSVFIFPPSDEQLKSGTASVVCLLNNFYPREAKVQWKVDNALQSGNSQESVTEQDSKDSTYSLSSTLTLSKADYEKHKVYACEVTHQGLSSPVTKSFNRGEC
4 | – | 0.27 nM | 0.21 nM | 3.74 µg/mL | no binding (tested: 5 ug/ml) | 0.0284 nM | hu.Ab4.H12L3 (antibody, human IgG1, kappa, fucosylated human IgG1; also called huCCR8-Ab4.H12L3.hIgG1; Ab4 variant) heavy: not shown light: DYQMTQSPSSLSASVGDRVTITCQASQSISSYLSWYQQKPGKAPKLLIYKASTLASGVPSRFSGSGSGTDFTLTISSLQPEDFATYYCQQGYTSSNIDNIFGGGTKVEIKRTVAAPSVFIFPPSDEQLKSGTASVVCLLNNFYPREAKVQWKVDNALQSGNSQESVTEQDSKDSTYSLSSTLTLSKADYEKHKVYACEVTHQGLSSPVTKSFNRGEC
